Where a chain is given by its changes, count along the chain named. Like-named read-outs stand apart in the source and are kept apart here.
Legend:
[1] = target: T1, recombinant human IL-8, (ser-IL-8)72 (human, UniProt P10145); assay: inhibition of 125I-IL-8 binding to human neutrophils
[2] = target: T1, recombinant human IL-8, (ser-IL-8)72
[3] = target: human monomeric IL-8 (human)
rhesus IL-8 = rhesus IL-8 (rhesus, UniProt P67813); assay: cell-based or functional assay
[4] = target: T1, recombinant human IL-8, (ser-IL-8)72; remark: listed apart in the source
[5] = target: human monomeric IL-8 (human); remark: listed apart in the source
rabbit IL-8 = target: T2, rabbit IL-8 (rabbit, UniProt P19874); assay: cell-based or functional assay
T2 sequence: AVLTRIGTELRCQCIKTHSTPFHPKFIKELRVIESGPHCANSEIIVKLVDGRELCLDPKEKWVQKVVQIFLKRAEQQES

[6] = target: T1, recombinant human IL-8, (ser-IL-8)72; remark: listed apart in the source
[7] = target: human monomeric IL-8 (human); remark: listed apart in the source
[8] = target: T1, recombinant human IL-8, (ser-IL-8)72; assay: KinExA, equilibrium, human IL-8
Procedure: The beads were resuspended in assay buffer (0.1% bovine serum albumin in PBS) to a final volume of 30 ml.
The equilibrium constant (Kd) was calculated using the software provided by Sapidyne Instruments Inc.

IL-8 [9] = target: T3, IL-8 (Homo sapiens, UniProt P10145); assay: competitive binding ELISA (epitope comparison of biotinylated and unlabeled mAbs); design: is intended to mean (ser-IL-8)72 unless otherwise specified; ubiquitin (production fusion); made in house; conditions: biotinylated mAb to unlabeled mAb 1:100
Procedure: To assess whether these monoclonal antibodies bound to the same epitopes, a competitive binding ELISA was performed. […] Thus, mAb 4.1.3 and mAb 5.2.3 bind to a different epitope(s) than the epitope recognized by monoclonal antibodies 12.3.9, 4.8 and 5.12.14.

[10] = test system: human IL-8 mediated elastase release from human neutrophils; assay: IL-8 mediated release of elastase by neutrophils (mAb); assay type: cell-based; conditions: 1:1 ratio of IL-8 to mAb
Procedure: One of the antibodies, mAb 5.12.14, was further studied to determine whether it could block the IL-8 mediated release of elastase by neutrophils. Briefly, human neutrophils were resuspended in Hanks balanced salt solution (Gibco, Grand Island, N.Y.) containing 1.0% BSA, Fraction V (Sigma, St. Louis, Mo.), 2 mg/ml alpha-D-glucose (Sigma), 4.2 mM sodium bicarbonate (Sigma) and 0.01 M HEPES, pH 7.1 (JRH Bioscience, Lenexa, Kans.). A stock of cytochalasin B (Sigma) was prepared (5 mg/ml in dimethylsulfoxide (Sigma) and stored at 2-8° C. Cytochalasin B was added to the neutrophil preparation to produce a final concentration of 5 μg/ml, and incubated for 15 min at 37° C. Human IL-8 was incubated with mAb 5.12.14 (20 μl), or a negative control antibody, in 1 ml polypropylene tubes (DBM Scientific, San Fernando, Calif.) for 30 min at 37° C. The final assay concentrations of IL-8 were 50 and 500 nM. The monoclonal antibodies were diluted to produce the following ratios (IL-8:Mab): 1:50, 1:10, 1:2, 1:1, and 1:0.25. Cytochalasin B-treated neutrophils were added (100 μl/tube) and incubated for 2 hours at 25° C. The tubes were centrifuged (210×g, 2-8° C.) for 10 min, and supernatants were transferred to 96 well tissue culture plates (30 μl/well). […] Absorbance was measured at 405 nm (SLT 340 ATTC plate reader, SLT Lab Instruments, Austria).

[11] = target: T4, IL-8 binding to human neutrophils (Homo sapiens, UniProt P10145); assay: receptor binding assay: 125I-IL-8 bound to human neutrophils in presence of mAbs; conditions: 1:25 molar ratio of IL-8 to mAb
T4 construct: is intended to mean (ser-IL-8)72 unless otherwise specified; ubiquitin (production fusion); made in house
Procedure: Neutrophils were prepared by using Mono-Poly Resolving Medium (M-PRM) (Flow Lab. Inc., McLean, Va.). Briefly fresh, heparinized human blood was loaded onto M-PRM at a ratio of blood to medium, 3.5:3.0, and centrifuged at 300×g for 30 min at room temperature. Neutrophils enriched at the middle layer were collected and washed once in PBS. […] The receptor binding assay was done as follows. […] The mixture was then incubated with 100 μl of neutrophils (10^7 cells/ml) for 15 min at 37° C. […] The supernatant was removed by aspiration and the radioactivity associated with the pellet was counted in a gamma counter.

[12] = isoelectric focusing (IEF); assay type: physicochemical; conditions: IEF pH 3-9
Procedure: The isoelectric focusing (IEF) pattern of each mAb was determined by applying purified antibodies on an IEF polyacrylamide gel (pH 3-9, Pharmacia) using the Fast gel system (Pharmacia, Piscataway, N.J.). The IEF gel was pretreated with pharmalyte containing 1% Triton X100 (Sigma, St. Louis, Mo.) for 10 min before loading the samples. The IEF pattern was visualized by silver staining according to the instructions from the manufacturer. All of the monoclonal antibodies had different IEF patterns, confirming that they originated from different clones.

[13] = test system: IL-8 induced human neutrophil chemotaxis; assay: neutrophil chemotaxis induced by IL-8, Boyden chamber method; assay type: cell-based; conditions: 1:10 ratio of IL-8 to mAb
Procedure: The ability of the anti-IL-8 antibodies to block neutrophil chemotaxis induced by IL-8 was tested as follows. Neutrophil chemotaxis induced by IL-8 was determined using a Boyden chamber method (Larsen, et al. Science 243:1464 (1989)). One hundred μl of human neutrophils (10^6 cells/ml) resuspended in RPMI containing 0.1% BSA were placed in the upper chamber and 29 μl of the IL-8 (20 nM) with or without monoclonal antibodies were placed in the lower chamber. Cells were incubated for 1 hr at 37° C. Neutrophils migrated into the lower chamber were stained with Wright's Giemsa stain and counted under the microscope (100×magnification). Approximately 10 different fields per experimental group were examined. Neutralizing monoclonal antibodies 5.12.14 and 4.1.3 blocked almost 70% of the neutrophil chemotactic activity of IL-8 at 1:10 ratio of IL-8 to mAb.

IL-8 [14] = target: T3, IL-8; assay: radioimmune precipitation test (RIP), capture of soluble 125I-IL-8; assay type: binding; design: is intended to mean (ser-IL-8)72 unless otherwise specified; ubiquitin (production fusion); made in house
Procedure: One hundred microliters of a predetermined concentration of goat anti-mouse Ig antisera (Pel-Freez, Rogers, Ark.) were added and the mixture was incubated at room temperature for 1 hr. Immune complexes were precipitated by the addition of 0.5 ml of 6% polyethylene glycol (M.W. 8000) kept at 4° C. After centrifugation at 2,000×g for 20 min at 4° C., the supernatant was removed by aspiration and the radioactivity remaining in the pellet was counted in a gamma counter. Percent specific binding was calculated as (precipitated cpm-background cpm)/(total cpm-background cpm).

[15] = target: T1, recombinant human IL-8, (ser-IL-8)72; assay: 125I-IL-8 neutrophil competition; reference by Table 4: chimeric F(ab)
[16] = target: T1, recombinant human IL-8, (ser-IL-8)72; assay: inhibition of 125I-IL-8 binding to human neutrophils; remark: listed apart in the source
[17] = target: T1, recombinant human IL-8, (ser-IL-8)72; assay: as above; remark: listed apart in the source
[18] = target: T1, recombinant human IL-8, (ser-IL-8)72; assay: competitive binding RIP, Scatchard
[19] = target: T1, recombinant human IL-8, (ser-IL-8)72; remark: listed apart in the source
[20] = target: IL-8 binding to IL-8 receptors on human neutrophils (Homo sapiens, UniProt P10145); assay: inhibition of 125I-IL-8 binding to human neutrophils (competition binding assay); conditions: read-out: average IC50, inhibition of 125I-IL-8 binding to human neutrophils; characterization of 6G4V11N35A Fab and F(ab')2 (FIGS. 33, 38)
[21] = test system: neutrophils in bronchoalveolar lavage (BAL) fluid; assay: neutrophils in bronchoalveolar lavage (BAL) fluid of animals infected with bacteria; assay type: in vivo; conditions: infected with Streptococcus pneumoniae, Escherichia coli, or Pseudomonas aeruginosa; versus isotype control mouse IgG
Description: FIG. 12 is a graph depicting the effect of anti-IL-8 monoclonal antibody treatment on the number of neutrophils in bronchoalveolar lavage (BAL) fluid in animals infected with Streptococcus pneumoniae, Escherichia coli, or Pseudomonas aeruginosa.

Molecule rhu4D5 F(ab) (Fab) has an IC50 [1] of over 200 µM.

B1: humanized 6G425 F(ab)-9 (Fab, V domains shown)
VH: EVQLVQSGGGLVQPGGSLRLSCAASGYSFSSHYMHWVRQAPGKGLEWVGYIDPSNGETTYNQKFKGRFTLSRDNSKNTAYLQMNSLRAEDTAVYYCARGDYRYNGDWFFDVWGQGTLVTVSS
VL: DIQMTQSPSSLSASVGDRVTITCRSSQSLVHGIGNTYLHWYQQKPGKAPKLLIYKVSNRFSGVPSRFSGSGSGTDFTLTISSLQPEDFATYYCSQSTHVPLTFGQGTKVEIKR
For B1, the IC50, IL-8 mediated neutrophil chemotaxis [2] was 12 nM, the IC50, IL-8 mediated neutrophil chemotaxis [3] was 15 nM and the “IC50, IL-8 mediated neutrophil chemotaxis” value (rhesus IL-8) was about 22 nM.

B2: 6G4V11N35A F(ab')2 leucine zipper (antibody, V domains shown)
VH: B1 VH
VL: B1 VL with N35A
In the case of B2, the IC50, human IL-8 mediated neutrophil chemotaxis [4] is reported as 1.5 nM, the IC50, IL-8 mediated neutrophil chemotaxis [5] is reported as 1 nM and the “IC50, IL-8 mediated neutrophil chemotaxis” value (rabbit IL-8) is reported as 4 nM.

B3: 6G4V11N35A Fab (Fab, V domains shown)
VH: B1 VH
VL: B1 VL with N35A
For B3, the IC50, IL-8 mediated PMN chemotaxis [6] was 0.8 nM, the IC50, IL-8 mediated neutrophil chemotaxis [7] was 1 nM and the IC50, human IL-8 mediated neutrophil chemotaxis [4] was 2.7 nM. For the same molecule, the Kd [8] was about 0.114 nM and the “IC50, IL-8 mediated neutrophil chemotaxis” value (rabbit IL-8) was 5 nM.

B4: 5.12.14: murine anti-human IL-8 monoclonal antibody, IgG2a, hybridoma ATCC HB 11553 (antibody, V domains shown)
VL: KASQNVGTNVAWYQQKPGQSPKALIYSSSYRYSGVPDRFTGSGSGTDFTLTISHVQSEDLADYFCQQYNIYPLTFGPGTKLELKRADAAPPTVSIFPPFE
VH: ASGFIFSSYGMSWVRQTPGKSLELVATINNNGDSTYYPDSVKGRFTISRDNAKNTLYLQMSSLKSEDTAMFYCARALISSATWFGYWGQGTLVTVSAAKTTAPSVYP
With B4 the “inhibition of binding of biotinylated mAb (epitope)” value (IL-8 [9]) was “significantly inhibited by its homologous mAb but not by mAb 4.1.3”, the “block of IL-8 mediated release of elastase from neutrophils” value [10] was “able to effectively block the release of elastase from neutrophils” and the “inhibition of binding of IL-8 to human neutrophils” value [11] was “greater than 85%”. The pI [12] was 6.2-7.4, the “block of neutrophil chemotactic activity of IL-8” value [13] was about 70% and the “% Specific Binding to IL-8” value (IL-8 [14]; 125I-IL-8, RIP) was 98%. For the same molecule, the “ability to capture soluble 125I-IL-8” value (IL-8 [14]; RIP) was “captured ^125 I-IL-8 very efficiently”.

B5: humanized 6G425 F(ab)-1 (Fab, V domains shown)
VH: EVQLVESGGGLVQPGGSLRLSCAASGYSFSSHYMHWVRQAPGKGLEWVGYIDPSNGETTYNQKFKGRFTISRDNSKNTLYLQMNSLRAEDTAVYYCAARGDYRYNGDWFFDVWGQGT
VL: DIQMTQSPSSLSASVGDRVTITCRSSQSLVHGIGNTYLHWYQQKPGKAPKLLIYYKVSNRFSGVPSRFSGSGSGTDFTLTISSLQPEDFATYYCSQSTHVPLTFGQGTKVEIKR
For B5, the “fold reduction in binding affinity” value [15] was 5.5 fold, the IC50 [16] was 63 nM and the IC50 [17] was 40 nM.

B6: monoclonal antibody 5.12.14 (antibody, V domains shown)
VH: EVQLVESGGGLVPPGGSLKLSCAASGFIFSSYGMSWVRQTPGKSLELVATINNNGDSTYYPDSVKGRFTISRDNAKNTLYLQMSSLKSEDTAMFYCARALISSATWFGYWGQGTLVTVSA
VL: DIVMTQSQKFMSTSVGDRVSVTCKASQNVGTNVAWYQQKPGQSPKALIYSSSYRYSGVPDRFTGSGSGTDFTLTISHVQSEDLADYFCQQYNIYPLTFGPGTKLELKR
B6 gave a Kd [18] of 0.3 nM and a neutrophil chemotaxis induced by IL-8 (Boyden chamber) [19] of 70%.

B7: 6G4.2.5: murine anti-rabbit IL-8 monoclonal antibody, IgG2a, hybridoma ATCC HB 11722 (antibody, V domains shown)
VL: DIVMTQTPLSLPVSLGDQASISCRSSQSLVHGIGNTYLHWYLQKPGQSPKLLIYYKVSNRFSGVPDRFSDSGSGTDFTLRISRVEAEDLGLYFCSQSTHVPLTFGAGTKLELKR
VH: EIQLQQSGPELMKPGASVKISCKASGYSFSSHYMHWVKQSHGKSLEWIGYIDPSNGETTYNQKFKGKATLTVDTSSSTANVHLSSLTSDDSAVYFCAARGDYRYNGDWFFDVWGAGT
For B7, the IC50 [20] was 5 nM and the “number of neutrophils in BAL fluid” value [21] was “significantly reduced the number of neutrophils present in the BAL fluid”.
